Measured values reported in publication PMC11436948 (Nature Communications, 2024).
Read-outs that look alike come from different tables or passages of the source.

Columns and labels:
[1] = molecular target: ^bioχψδγ3δ’ clamp loader complex containing N-terminally biotinylated χ (E. coli) (UniProt P28905); experiment: SPR
[2] = molecular target: ^bioχψδγ3δ’ clamp loader complex containing N-terminally biotinylated χ (E. coli) (UniProt P28905); experiment: SPR; remark: listed apart in the source
[3] = molecular target: the molecule itself; experiment: cryo-EM structure

Kd [1] [nM]	Kd [2] [nM]	Molecule	binding result [3]
13.3	400	E. coli β2 sliding clamp (from UniProt P0A988) (natural protein)	
		γ subunit of the E. coli clamp loader complex (natural protein) MSYQVLARKWRPQTFADVVGQEHVLTALANGLSLGRIHHAYLFSGTRGVGKTSIARLLAKGLNCETGITATPCGVCDNCREIEQGRFVDLIEIDAASRTKVEDTRDLLDNVQYAPARGRFKVYLIDEVHMLSRHSFNALLKTLEEPPEHVKFLLATTDPQKLPVTILSRCLQFHLKALDVEQIRHQLEHILNEEHIAHEPRALQLLARAAEGSLRDALSLTDQAIASGDGQVSTQAVSAMLGTLDDDQALSLVEAMVEANGERVMALINEAAARGIEWEALLVEMLGLLHRIAMVQLSPAALGNDMAAIELRMRELARTIPPTDIQLYYQTLLIGRKELPYAPDRRMGVEMTLLRALAFHPRMPLPEPEVPRQSFAPVAPTAVMTPTQVPPQPQSAPQQAPTVPLPETTSQVLAARQQLQRVQGATKAKKE	binds
